In patent publication US20230227512A1 (published 2023):

B1: PGT151 Fab (Fab, V domains shown)
VH: RVQLVESGGGVVQPGKSVRLSCVVSDFPFSKYPMYWVRQAPGKGLEWVAAISGDAWHVVYSNSVQGRFLVSRDNVKNTLYLEMNSLKIEDTAVYRCARMFQESGPPRLDRWSGRNYYYYSGMDVWGQGTTVTVSS
VL: DIVMTQTPLSLSVTPGQPASISCKSSESLRQSNGKTSLYWYRQKPGQSPQLLVFEVSNRFSGVSDRFVGSGSGTDFTLRISRVEAEDVGFYYCMQSKDFPLTFGGGTKVDLKR
B2: PGT145 antibody (antibody, V domains shown)
VH: QVQLVQSGAEVKKPGSSVKVSCKASGNSFSNHDVHWVRQATGQGLEWMGWMSHEGDKTGLAQKFQGRVTITRDSGASTVYMELRGLTADDTAIYYCLTGSKHRLRDYFLYNEYGPNYEEWGDYLATLDVWGHGTAVTVSS
VL: EVVITQSPLFLPVTPGEAASLSCKCSHSLQHSTGANYLAWYLQRPGQTPRLLIHLATHRASGVPDRFSGSGSGTDFTLKISRVESDDVGTYYCMQGLHSPWTFGQGTKVEIK
B3: 35O22 Fab (Fab, V domains shown)
VH: QGQLVQSGAELKKPGASVKISCKTSGYRFNFYHINWIRQTAGRGPEWMGWISPYSGDKNLAPAFQDRVIMTTDTEVPVTSFTSTGAAYMEIRNLKFDDTGTYFCAKGLLRDGSSTWLPYLWGQGTLLTVSS
VL: QSVLTQSASVSGSLGQSVTISCTGPNSVCCSHKSISWYQWPPGRAPTLIIYEDNERAPGISPRFSGYKSYWSAYLTISDLRPEDETTYYCCSYTHNSGCVFGTGTKVSVL
B4: VRC01 (antibody, V domains shown)
VH: QVQLVQSGGQMKKPGESMRISCRASGYEFIDCTLNWIRLAPGKRPEWMGWLKPRGGAVNYARPLQGRVTMTRDVYSDTAFLELRSLTVDDTAVYFCTRGKNCDYNWDFEHWGRGTPVIVSS
VL: EIVLTQSPGTLSLSPGETAIISCRTSQYGSLAWYQQRPGQAPRLVIYSGSTRAAGIPDRFSGSRWGPDYNLTISNLESGDFGVYYCQQYEFFGQGTKVQVDI
B5: 447-52D antibody (antibody, V domains shown)
VH: EVQLVESGGGLVKPGGSLRLTCVASGFTFSDVWLNWVRQAPGKGLEWVGRIKSRTDGGTTDYAASVKGRFTISRDDSKNTLYLQMNSLKTEDTAVYSCTTDGFIMIRGVSEDYYYYYMDVWGKGTTVTVSS
VL: QSVLTQPPSVSAAPGQKVTISCSGSSSNIGNNYVLWYQQFPGTAPKLLIYGNNKRPSGIPDRFSGSKSGTSATLGITGLQTGDEADYFCATWDSGLSADWVFGGGTKLTVL
B6: F105 antibody (antibody, V domains shown)
VH: QVQLQESGPGLVKPSETLSLTCTVSGGSISSHYWSWIRQSPGKGLQWIGYIYYSGSTNYSPSLKSRVTISVETAKNQFSLKLTSMTAADTAVYYCARGPVPAVFYGDYRLDPWGQGTLVTVSS
VL: EIVLTQSPGTLSLSAGERATLSCRASQSVSSRYLAWYQQKPGQAPRLLIYGASSRATGIPDRFSGSGSGTDFTLTISRVEPEDFAVYYCQQYDNSVCTFGQGTKLEIK

Tests used:
[1] = target: BG505 SOSIP.664 HIV-1 Env ectodomain trimer; assay: SPR; CD4 Ig capture
[2] = target: BG505 SOSIP.664 HIV-1 Env ectodomain trimer; assay: SPR; 2G12 capture
[3] = target: BG505 SOSIP.664 HIV-1 Env ectodomain trimer; assay: BLI
[4] = target: BG505.SOSIP.664.201C-433C HIV-1 Env ectodomain trimer; assay: BLI
[5] = target: BG505 SOSIP.664 HIV-1 Env ectodomain trimer; assay: SPR
[6] = target: BG505.SOSIP.664.201C-433C HIV-1 Env ectodomain trimer; assay: SPR
[7] = target: BG505.SOSIP.664.201C-433C HIV-1 Env ectodomain trimer; assay: SPR; remark: listed apart in the source
[8] = target: BG505.SOSIP.664.201C-433C HIV-1 Env ectodomain trimer; assay: BLI; remark: listed apart in the source
[9] = target: T1, BG505 SOSIP.664 trimer+sCD4 complex (human, UniProt P01730 26-208); assay: SPR; 17b capture
[10] = target: BG505 SOSIP.664 HIV-1 Env ectodomain trimer; assay: SPR; CD4 Ig capture; remark: listed apart in the source
[11] = target: T1, BG505 SOSIP.664 trimer+sCD4 complex; assay: SPR
[12] = target: BG505.SOSIP.664.201C-433C HIV-1 Env ectodomain trimer; assay: SPR; +sCD4

Binder | Kd [1] [nM] | Kd [2] [nM] | Kd [3] [nM] | Kd [4] [nM] | Kd [5] [nM] | Kd [6] [nM] | Kd [7] [nM] | Kd [8] [nM] | Kd [9] [nM] | Kd [10] [nM] | Kd [11] [nM] | Kd [12] [nM]
B1 | 106 | 144 | 135 | 202 | 158 | 78.4 |  |  |  |  |  | 
B2 |  | 22.8 | 1.8 | 1.68 | 4.38 | 7.22 |  |  |  |  |  | 
B3 |  |  |  |  |  |  | 3.04 | 27.7 | 27.2 | 28 |  | 
B4 |  |  |  |  |  |  | 1.43 | 2.81 |  |  |  | 
B5 |  |  | > 4000 | > 4000 | > 1000 | > 1000 |  |  |  |  | 1.2 | > 1000
B6 |  |  | > 4000 | > 4000 | > 1000 | > 1000 |  |  |  |  |  | 
